The results in this text go back to patent US20140234975.

Experiment in all cases: cell_activity
Data set [1] has as its system T1, SC_RAG single-chain meganuclease (engineered).
T1 sequence: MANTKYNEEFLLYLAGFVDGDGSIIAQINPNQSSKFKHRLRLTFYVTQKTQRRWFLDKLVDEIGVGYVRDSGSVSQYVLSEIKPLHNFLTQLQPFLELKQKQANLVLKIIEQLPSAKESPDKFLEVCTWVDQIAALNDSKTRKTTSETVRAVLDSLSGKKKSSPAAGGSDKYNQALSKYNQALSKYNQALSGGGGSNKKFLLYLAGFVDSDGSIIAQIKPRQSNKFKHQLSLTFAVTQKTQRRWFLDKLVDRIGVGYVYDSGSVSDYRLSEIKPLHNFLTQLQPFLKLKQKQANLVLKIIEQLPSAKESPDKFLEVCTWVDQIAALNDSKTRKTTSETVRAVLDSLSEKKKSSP
The following applies: 293H endogenous locus; 4.69 with TREX2, 5.41 with scTREX2.

Data set [2] has as its system T2, scTrex2-SC_RAG (engineered (human TREX2 fusion)).
T2 sequence: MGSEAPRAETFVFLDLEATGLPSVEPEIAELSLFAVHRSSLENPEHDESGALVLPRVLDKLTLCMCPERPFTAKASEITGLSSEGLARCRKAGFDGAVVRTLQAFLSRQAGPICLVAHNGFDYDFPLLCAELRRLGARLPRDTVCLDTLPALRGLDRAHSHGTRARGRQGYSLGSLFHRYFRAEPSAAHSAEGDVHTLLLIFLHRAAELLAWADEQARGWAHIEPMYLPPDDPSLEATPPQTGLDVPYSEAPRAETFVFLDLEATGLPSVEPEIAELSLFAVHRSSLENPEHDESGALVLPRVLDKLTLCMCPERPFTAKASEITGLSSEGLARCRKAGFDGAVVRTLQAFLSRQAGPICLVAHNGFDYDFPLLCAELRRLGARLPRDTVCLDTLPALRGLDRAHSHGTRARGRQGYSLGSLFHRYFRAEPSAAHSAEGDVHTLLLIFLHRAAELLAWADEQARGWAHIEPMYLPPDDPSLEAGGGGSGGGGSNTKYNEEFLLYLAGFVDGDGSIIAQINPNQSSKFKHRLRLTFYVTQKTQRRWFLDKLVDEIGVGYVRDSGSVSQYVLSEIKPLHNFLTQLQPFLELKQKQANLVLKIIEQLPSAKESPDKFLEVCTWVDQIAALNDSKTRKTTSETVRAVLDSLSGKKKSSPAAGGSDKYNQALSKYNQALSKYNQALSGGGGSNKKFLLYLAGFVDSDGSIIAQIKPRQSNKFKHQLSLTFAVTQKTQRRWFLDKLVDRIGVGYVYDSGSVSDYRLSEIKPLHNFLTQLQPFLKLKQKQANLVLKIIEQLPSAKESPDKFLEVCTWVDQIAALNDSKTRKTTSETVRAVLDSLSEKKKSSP
Particulars: 293H endogenous locus.

Data set [3] has as its system T3, scTrex2-SC_CAPNS1 (engineered (human TREX2 fusion)).
T3 sequence: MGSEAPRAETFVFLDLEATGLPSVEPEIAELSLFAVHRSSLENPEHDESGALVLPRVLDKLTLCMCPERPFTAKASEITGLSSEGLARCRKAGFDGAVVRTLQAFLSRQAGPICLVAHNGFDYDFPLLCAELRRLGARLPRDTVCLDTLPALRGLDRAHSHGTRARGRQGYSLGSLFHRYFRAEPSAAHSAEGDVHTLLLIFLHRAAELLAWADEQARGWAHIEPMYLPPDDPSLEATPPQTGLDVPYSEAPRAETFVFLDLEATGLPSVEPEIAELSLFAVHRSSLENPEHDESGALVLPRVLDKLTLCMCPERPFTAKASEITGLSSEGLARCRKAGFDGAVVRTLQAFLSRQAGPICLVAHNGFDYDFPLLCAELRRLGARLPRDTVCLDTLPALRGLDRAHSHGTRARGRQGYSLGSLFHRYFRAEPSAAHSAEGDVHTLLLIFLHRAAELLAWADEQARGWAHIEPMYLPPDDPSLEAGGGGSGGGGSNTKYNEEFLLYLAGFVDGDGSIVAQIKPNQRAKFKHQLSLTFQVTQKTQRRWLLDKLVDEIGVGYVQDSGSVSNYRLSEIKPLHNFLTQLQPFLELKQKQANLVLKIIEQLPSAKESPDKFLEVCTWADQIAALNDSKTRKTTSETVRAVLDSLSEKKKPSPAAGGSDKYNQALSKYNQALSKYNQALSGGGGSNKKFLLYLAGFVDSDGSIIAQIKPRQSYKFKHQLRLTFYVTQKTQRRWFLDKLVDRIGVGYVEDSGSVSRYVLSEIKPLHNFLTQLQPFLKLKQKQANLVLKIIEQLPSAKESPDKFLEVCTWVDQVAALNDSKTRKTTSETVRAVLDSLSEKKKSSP
Particulars: 293H endogenous locus.

Data set [4] concerns T4, SC_CAPNS1 single-chain meganuclease (engineered).
T4 sequence: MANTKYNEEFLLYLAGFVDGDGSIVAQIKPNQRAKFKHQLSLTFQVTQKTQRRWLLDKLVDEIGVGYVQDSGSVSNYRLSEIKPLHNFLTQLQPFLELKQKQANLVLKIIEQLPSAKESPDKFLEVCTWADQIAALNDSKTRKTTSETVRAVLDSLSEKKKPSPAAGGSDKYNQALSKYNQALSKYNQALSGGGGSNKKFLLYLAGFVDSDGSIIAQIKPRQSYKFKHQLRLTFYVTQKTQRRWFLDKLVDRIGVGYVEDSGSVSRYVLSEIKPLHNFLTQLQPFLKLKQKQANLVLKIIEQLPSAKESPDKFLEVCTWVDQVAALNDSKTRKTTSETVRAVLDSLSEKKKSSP
The following applies: 293H endogenous locus; 18.25 with TREX2, 25.4 with scTREX2.

RAG1 locus target: the activity (% targeted mutagenesis) in data set [1] stood at 1.4; in data set [2] it was 8.42.
In the case of CAPNS1 locus meganuclease target, the activity (% targeted mutagenesis) worked out at 35.8 in data set [3] and 15.2 in data set [4].
